Experimental findings from patent US20150098945A1 (Daiichi Sankyo, published 2015) are described below.

The target in assay [1] is T1, rat ROBO4 (pCI-raROBO4-transfected HEK293 cells) (rat, UniProt Q80W87 38-949 at identity 0.93)).
T1 chain: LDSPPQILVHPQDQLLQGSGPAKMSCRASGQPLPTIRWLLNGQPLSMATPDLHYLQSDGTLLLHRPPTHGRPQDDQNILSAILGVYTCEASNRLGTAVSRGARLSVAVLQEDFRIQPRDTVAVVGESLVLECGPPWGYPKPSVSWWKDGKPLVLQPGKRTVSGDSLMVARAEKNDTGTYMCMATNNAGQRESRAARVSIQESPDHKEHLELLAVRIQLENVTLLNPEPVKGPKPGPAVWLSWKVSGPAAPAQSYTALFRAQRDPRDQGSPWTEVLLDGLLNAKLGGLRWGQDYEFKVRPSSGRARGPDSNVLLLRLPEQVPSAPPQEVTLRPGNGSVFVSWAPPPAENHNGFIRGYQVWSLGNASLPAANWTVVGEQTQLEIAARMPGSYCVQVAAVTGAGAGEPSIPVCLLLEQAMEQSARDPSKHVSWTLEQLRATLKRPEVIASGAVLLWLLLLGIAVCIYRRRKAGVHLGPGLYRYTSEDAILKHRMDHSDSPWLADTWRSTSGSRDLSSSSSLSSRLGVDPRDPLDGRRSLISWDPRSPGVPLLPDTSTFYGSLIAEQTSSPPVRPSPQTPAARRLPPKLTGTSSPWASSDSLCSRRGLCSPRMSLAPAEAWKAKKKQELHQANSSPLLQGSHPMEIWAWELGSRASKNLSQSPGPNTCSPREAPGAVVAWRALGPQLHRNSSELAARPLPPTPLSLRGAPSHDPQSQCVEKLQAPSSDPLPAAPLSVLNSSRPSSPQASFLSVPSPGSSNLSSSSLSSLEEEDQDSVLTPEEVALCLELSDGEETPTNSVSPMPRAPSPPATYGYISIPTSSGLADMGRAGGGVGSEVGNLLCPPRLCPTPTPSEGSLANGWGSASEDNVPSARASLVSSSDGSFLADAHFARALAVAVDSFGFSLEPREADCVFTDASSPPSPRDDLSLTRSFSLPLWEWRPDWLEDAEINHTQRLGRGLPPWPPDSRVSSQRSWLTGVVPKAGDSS
Put plainly: flow cytometry on transfected HEK293 cells.

Assay [2] addresses T2, human ROBO2 (pCI-hROBO2-transfected HEK293 cells) (human).
T2 chain: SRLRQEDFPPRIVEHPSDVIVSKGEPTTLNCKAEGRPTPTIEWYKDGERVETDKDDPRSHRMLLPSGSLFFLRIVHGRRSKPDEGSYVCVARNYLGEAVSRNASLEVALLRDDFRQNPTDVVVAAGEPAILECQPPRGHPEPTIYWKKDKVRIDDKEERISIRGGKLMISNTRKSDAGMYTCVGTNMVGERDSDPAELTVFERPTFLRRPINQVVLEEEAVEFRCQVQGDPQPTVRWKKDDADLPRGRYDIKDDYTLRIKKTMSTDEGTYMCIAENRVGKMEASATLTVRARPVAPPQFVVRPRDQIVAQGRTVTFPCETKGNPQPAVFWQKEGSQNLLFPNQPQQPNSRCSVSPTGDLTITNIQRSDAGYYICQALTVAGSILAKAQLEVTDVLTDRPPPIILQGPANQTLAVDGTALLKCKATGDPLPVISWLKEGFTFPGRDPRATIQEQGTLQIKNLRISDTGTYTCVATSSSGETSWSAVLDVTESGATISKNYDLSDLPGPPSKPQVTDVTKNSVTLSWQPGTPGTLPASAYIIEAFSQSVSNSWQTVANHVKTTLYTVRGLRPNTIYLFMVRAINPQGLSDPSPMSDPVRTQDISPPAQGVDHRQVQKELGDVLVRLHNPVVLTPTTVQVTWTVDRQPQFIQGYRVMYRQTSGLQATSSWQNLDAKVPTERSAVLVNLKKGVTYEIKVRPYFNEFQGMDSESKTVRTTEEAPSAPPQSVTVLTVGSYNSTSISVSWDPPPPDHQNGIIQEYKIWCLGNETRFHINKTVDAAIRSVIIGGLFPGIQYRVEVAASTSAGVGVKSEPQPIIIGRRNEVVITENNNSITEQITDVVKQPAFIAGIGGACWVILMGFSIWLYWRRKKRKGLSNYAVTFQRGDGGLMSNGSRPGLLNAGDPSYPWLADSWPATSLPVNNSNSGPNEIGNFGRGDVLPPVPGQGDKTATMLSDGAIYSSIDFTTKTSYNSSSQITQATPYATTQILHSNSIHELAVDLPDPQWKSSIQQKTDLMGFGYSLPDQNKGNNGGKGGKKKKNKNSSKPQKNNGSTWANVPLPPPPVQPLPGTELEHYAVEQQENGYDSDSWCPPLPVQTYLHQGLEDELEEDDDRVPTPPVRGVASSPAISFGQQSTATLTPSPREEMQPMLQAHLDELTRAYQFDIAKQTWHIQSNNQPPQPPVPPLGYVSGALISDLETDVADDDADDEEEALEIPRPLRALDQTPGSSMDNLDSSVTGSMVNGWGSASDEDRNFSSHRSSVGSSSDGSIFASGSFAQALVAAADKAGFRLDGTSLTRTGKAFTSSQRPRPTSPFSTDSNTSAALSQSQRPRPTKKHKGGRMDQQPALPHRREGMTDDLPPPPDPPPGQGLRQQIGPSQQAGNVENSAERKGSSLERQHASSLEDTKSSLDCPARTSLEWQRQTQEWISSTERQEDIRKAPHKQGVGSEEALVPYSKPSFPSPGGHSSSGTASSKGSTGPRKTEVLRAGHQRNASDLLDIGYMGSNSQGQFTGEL
Nature of the assay: flow cytometry on transfected HEK293 cells. (Flow cytometry measures light scatter and fluorescence of single cells or particles in a stream.)

B1: humanized MAb1 antibody H-1140 (antibody, human IgG2, kappa, V domains shown)
VH: EVQLVESGGGLVQPGGSLRLSCAASGFTFSTYAMSWVRQAPGKGLEWVATISQGGTYTYYPDSVKGRFTISRDNAKNTLYLQMNSLRAEDTAVYYCARLIYYDYLDYWGQGTLVTVSS
VL: DIVMTQSPLSLPVTLGEPASISCRSSQSLENSNGNTYLNWYLQKPGQSPQLLIYRVSNRFSGVPDRFSGSGSGTDFTLKISRVEAEDVGVYYCLQVTHVPWTFGPGTKVDIKR
notes: Human IgG2 / kappa constant regions; also called hMAb1-H2-type heavy chain + hMAb1-L1-type light chain
Take B1: the binding result was “no binding (tested: 10 µg/mL (method of 4)-3-2))” in assay [1] and “no binding (tested: 10 µg/mL (method of 4)-4-2))” in assay [2].
